Data on five molecules can be found in patent publication US20250092147A1 (PEPMAB B V, published 2025).

The target in test [1] is T1, human CCR7 (human, UniProt P32248 25-378, sulfated tyrosine residues in position Y32 and Y41 (as the filing describes the N-terminal extracellular domain)).
T1 sequence: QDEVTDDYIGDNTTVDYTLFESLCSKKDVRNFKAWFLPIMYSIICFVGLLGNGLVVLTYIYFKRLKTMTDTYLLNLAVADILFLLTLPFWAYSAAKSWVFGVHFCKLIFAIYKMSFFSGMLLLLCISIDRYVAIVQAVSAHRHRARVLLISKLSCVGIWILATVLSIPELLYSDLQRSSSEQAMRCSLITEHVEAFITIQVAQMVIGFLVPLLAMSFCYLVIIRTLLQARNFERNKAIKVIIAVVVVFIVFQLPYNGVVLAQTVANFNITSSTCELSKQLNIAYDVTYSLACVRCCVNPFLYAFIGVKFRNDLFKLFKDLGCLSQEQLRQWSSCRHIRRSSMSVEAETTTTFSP
The test can be described thus: cell-based or functional assay.

Test [2] deals with T1, human CCR7. Put plainly: FACS (flow cytometry) on CLL and TPLL cells. For orientation: A flow cytometer gives signals particle by particle.
Experimental: Binding of antibodies to membrane expressed CCR7 was determined by Fluorescence-activated cell sorting (FACS) by flow cytometry on three different chronic lymphocytic leukemia (CLL) samples and on three different T-cell Prolymphocytic leukaemia (TPLL) samples (data not shown). Appropriate controls (human isotype controls) were included to easily calculate the percentage of positive cells and/or the relative median fluorescence intensity (RMFI), obtained from the ratio MFI (sample)/MFI (control).
The next test deals with T2, sulfated antigen SYM1899 (human, N-terminal pyroGlu; Z denotes sulfated Tyrosine (two Z in (pyroGlu)DEVTDDZIGDNTTVDZTLFESLCSKKDVRNK)).
T2 construct: also called immunogen SYM1899; synthetic antigen SYM1899
T2 peptide: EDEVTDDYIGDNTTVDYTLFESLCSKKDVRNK
Put plainly: ELISA, SYM1899 coated on the plate, 4 parameter logistics curve fit. How it is done: SEQ ID NO: 76). 100 ng/well SYM1899 was immobilized onto 96 well Maxisorp plates in coating buffer. Coating buffer was removed and 200 μl/well of block solution (3% w/v semi skim milk powder, PBS) was added and agitated 2 hours room temperature. Plate was washed six times with PBS-T (0.001% v/v Tween 20). […] 100 μl per well in triplicate of each antibody dilution was added to the plate in addition to a negative control of PBS and incubated 2 hours at room temperature with agitation. Plate was washed six times with PBS-T. 100 μl/well goat anti human HRP (Fc specific) (1:60,000 in PBS) was added and plates incubated for one hour agitated at room temperature. Plate was washed six times with PBS-T and once in PBS. 100 μl/well of TMB substrate solution was added and incubated at 37° C. for 10 minutes. 50 μl 1M HCl was added per well and the plate immediately read at 450 nm on a Biolise plate reader.
In general terms: ELISA stands for enzyme-linked immunosorbent assay.

Changes are numbered by the printed parent chain. Where “and” joins values, the source holds several entries; their conditions need not be identical. Equal entries are not always repeated.

B1: humanized anti-CCR7 mAb 650 variant HC1 LC1 (antibody, V domains shown)
VH: EVQLLESGGGFVKPGGSLKLSCVVSGLTFRDFAMSWVRQTPEKRLVWVATISSGGFYTYYPDSVKGRFTISRDNVRNILYLQMSSLRSEDTAVYYCVRRAYRYDGTGDYSALDYWGTGTTVTVSS
VL: DIQMTQSPSSLSASVGDRVTITCRASQDIGPSLNWYQQKPGKAPKRLIYATSNLDSGVPSRFSGSGSGTDFTLTISSLQPEDFATYYCLQFASSPLTFGQGTKVEIK
In the case of B1, in the test with human CCR7 [1], the “IC50 of inhibition of CCL19 induced CCR7 receptor internalization (PathHunter active internalization assay)” value is 0.415 µg/ml and 2.8 nM; the “IC50 of inhibition of CCL19 induced cAMP signalling (cAMP Secondary Messenger Pathway assay)” value was 1.61 µg/ml and 10.7 nM; the “IC50 of inhibition of CCL19 induced β-arrestin recruitment (PathHunter)” value was 9.56 µg/ml and 63.7 nM.

B2: control antibody 11-x (antibody, human IgG1, V domains shown)
VH: EVQLLESGGGFVKPGGSLKLSCVVSGLTFRDFAMSWVRQTPEKRLVWVATISSGGFYTYYPDSVKGRFTISRDNVRNILYLQMSSLRSEDTAVYYCARATTVVGTDFDYWGTGTTVTVSS
VL: B1 VL
Take B2: the binding result with human CCR7 [2] is given as “no binding”.

B3: humanized anti-CCR7 mAb 650 variant HC3 LC3 (antibody, V domains shown)
VH: EVQLVESGGGLVQPGGSLRLSCAVSGLTFRDFAMSWVRQAPGKGLEWVSTISSGGFYTYYPDSVKGRFTISRDNSKNTLYLQMNSLRAEDTASYYCVRRAYRYDGTGDYSALDYWGQGTLVTVSS
VL: B1 VL with Y36L, R46S, R61K, T72S, K103R, V104L
notes: Human Fc; See the note on VK3 under HC1 LC3
Broadly, the EC50 is the concentration at which the effect is half-maximal. Low readings indicate greater potency, high ones weaker potency. With B3, the EC50 in the test with sulfated antigen SYM1899 was above 100 nM.

B4: humanized anti-CCR7 mAb 650 variant HC2 LC3 (antibody, V domains shown)
VH: B3 VH with Q13K, V24A, S25P, S75A, K76A, T78S, S93V
VL: B1 VL with Y36L, R46S, R61K, T72S, K103R, V104L
notes: as for B3
In the case of B4, the EC50 with sulfated antigen SYM1899 was above 100 nM.

B5: humanized anti-CCR7 mAb 650 variant HC1 LC3 (antibody, V domains shown)
VH: B1 VH
VL: B1 VL with Y36L, R46S, R61K, T72S, K103R, V104L
notes: Human Fc
Regarding B5, the EC50 with sulfated antigen SYM1899 was above 100 nM.
